For orientation: Tm means the temperature at the midpoint of the melting transition.

Several values for one entry are separate records, joined by “and”; a condition that tells them apart may be missing. Equal entries are not always repeated.

These results are taken from FireProtDB.

For the data set the following is noted: whole UniProt chain shown; for Tm / unfolding enthalpy (van 't Hoff) / unfolding enthalpy (calorimetric): Thermal.
Setting [1] is: Lithobates pipiens, pH 6, 25 °C, GdnHCl, DSC, MES 100 mM, reversible: yes.
Setting [2] is: Hydrogenobacter thermophilus (strain DSM 6534 / IAM 12695 / TK-6), pH 7, CD, KH2PO4-NaOH 10 mM, reversible: yes.
Setting [3] is: Halobacterium salinarum (strain ATCC 700922 / JCM 11081 / NRC-1), pH 6.5, DSC, None, reversible: no.
The mark [4] stands for this setting: Halobacterium salinarum (strain ATCC 700922 / JCM 11081 / NRC-1), pH 7, DSC, Potassium phosphate 3 mM, KCl 150 mM, reversible: no.

B1: Protein P-30 wild type, P22069 (protein)
chain: QDWLTFQKKHITNTRDVDCDNIMSTNLFHCKDKNTFIYSRPEPVKAICKGIIASKNVLTTSEFYLSDCNVTSRPCKYKLKKSTNKFCVTCENQAPVHFVGVGSC
In the case of B1, under setting [1], the denaturant m value was 3.08 kcal/mol/M, the “denaturant midpoint (higher = more stable)” value amounted to 4.5 M and the unfolding free energy amounted to 13.9 kcal/mol.

B2: Metallocarboxypeptidase inhibitor wild type, P81511 (protein)
chain: MFLLVFLCCLHLVISSHTPDESFLCYQPDQVCCFICRGAAPLPSEGECNPHPTAPWCREGAVEWVPYSTGQCRTTCIPYVE
For B2, the “denaturant midpoint (higher = more stable)” value came out at 3.6 M (Hirudo medicinalis, pH 8.4, 23 °C, GdnHCl, Fluorescence, Tris-HCl 0.1 M) and 2.4 M (Hirudo medicinalis, pH 8.4, 23 °C, GdnSCN, Fluorescence, Tris-HCl 0.1 M).

B3: Arginine kinase wild type, P14208 (protein)
chain: MADAATIAKLEEGFKKLEAATDCKSLLKKYLSKDIFDSLKAKKTSLGATLLDVIQSGVENLDSGVGIYAPDAEAYSLFAPLFDPIIEDYHKGFKQTDKHPAKDFGDVSKFINVDPEGTFVISTRVRCGRSMEGYPFNPCLTEAQYKEMEEKVSSTLSGLEGELKGSYFPLTGMTKEVQQKLIDDHFLFKEGDRFLQAANACRYWPAGRGIYHNDNKTFLVWCNEEDHLRIISMQMGGDLGQVYRRLVSAVNDIEKRVPFSHHDRLGFLTFCPTNLGTTVRASVHIKLPKLAANREKLEEVAAKFSLQVRGTRGEHTEAEGGIYDISNKRRMGLTEFQAVKEMQDGILELIKIEKEM
Take B3: for the setting “Homarus gammarus, pH 7.4, 22 °C, GdnHCl, CD, Sodium phosphate 100 mM”, the unfolding free energy was found to be 5.98 kcal/mol.

B4: wild type, Q2YD82 (protein)
chain: MDCAEGRAANLPCNHSTISGNEYVYWYRQIHSQGPQYIIHGLKNNETNEMASLIITEDRKSSTLILPHATLRDTAVYYCIVYDYGQNFVFGPGTRLSVLPYIQNPDPAVYQLRDSKSSDKSVCLFTDFDSQTNVSQSKDSDVYITDKTVLDMRSMDFKSNSAVAWSNKSDFACANAFNNSIIPEDTFFPSPESSCDVKLVEKSFETDTNLNFQNLSVIGFRILLLKVAGFNLLMTLRLWSS
Turning to B4, the Tm (Homo sapiens, fluorescence) is 54.9 °C and 53.3 °C.

B5: Cytochrome c-552 wild type, P15452 (protein)
chain: MKKFLLVAVVGLAGITFANEQLAKQKGCMACHDLKAKKVGPAYADVAKKYAGRKDAVDYLAGKIKKGGSGVWGSVPMPPQNVTDAEAKQLAQWILSIK
With B5, under setting [2], the Tm came out at 90 °C and the “unfolding enthalpy (van 't Hoff)” value amounted to 83.5 kcal/mol.

B6: Bacteriorhodopsin wild type, P02945 (protein)
chain: MLELLPTAVEGVSQAQITGRPEWIWLALGTALMGLGTLYFLVKGMGVSDPDAKKFYAITTLVPAIAFTMYLSMLLGYGLTMVPFGGEQNPIYWARYADWLFTTPLLLLDLALLVDADQGTILALVGADGIMIGTGLVGALTKVYSYRFVWWAISTAAMLYILYVLFFGFTSKAESMRPEVASTFKVLRNVTVVLWSAYPVVWLIGSEGAGIVPLNIETLLFMVLDVSAKVGFGLILLRSRAIFGEAEAPEPSAGDGAAATSD
As to B6, the Tm runs as follows: under setting [3], 96 °C; under setting [4], 85 °C; (Halobacterium salinarum (strain ATCC 700922 / JCM 11081 / NRC-1), pH 7.5, DSC, phosphate 190 mM, reversible: no) 95.1 °C; (Halobacterium salinarum (strain ATCC 700922 / JCM 11081 / NRC-1), pH 7.9, CD, glycylglycine 50 mM, NaCl 100 mM, reversible: no) 79 °C; (Halobacterium salinarum (strain ATCC 700922 / JCM 11081 / NRC-1), pH 9.5, DSC, carbonate 50 mM, NaCl 100 mM, reversible: no) 81 °C. Further, the “unfolding enthalpy (calorimetric)” value runs as follows: under setting [3], 83.7 kcal/mol; under setting [4], 23 kcal/mol. Moreover, the “unfolding enthalpy (van 't Hoff)” value under setting [4] amounted to 76 kcal/mol.

B7: Persulfide dioxygenase ETHE1, mitochondrial wild type, O95571 (protein)
chain: MAEAVLRVARRQLSQRGGSGAPILLRQMFEPVSCTFTYLLGDRESREAVLIDPVLETAPRDAQLIKELGLRLLYAVNTHCHADHITGSGLLRSLLPGCQSVISRLSGAQADLHIEDGDSIRFGRFALETRASPGHTPGCVTFVLNDHSMAFTGDALLIRGCGRTDFQQGCAKTLYHSVHEKIFTLPGDCLIYPAHDYHGFTVSTVEEERTLNPRLTLSCEEFVKIMGNLNLPKPQQIDFAVPANMRCGVQTPTA
For B7, the Tm (Homo sapiens, pH 7.5, CD, Tris-HCl 50mM, NaCl 150mM, transition: 2) was found to be 62 °C.

B8: Subtilisin Savinase wild type, P29600 (protein)
chain: AQSVPWGISRVQAPAAHNRGLTGSGVKVAVLDTGISTHPDLNIRGGASFVPGEPSTQDGNGHGTHVAGTIAALNNSIGVLGVAPSAELYAVKVLGASGSGSVSSIAQGLEWAGNNGMHVANLSLGSPSPSATLEQAVNSATSRGVLVVAASGNSGAGSISYPARYANAMAVGATDQNNNRASFSQYGAGLDIVAPGVNVQSTYPGSTYASLNGTSMATPHVAGAAALVKQKNPSWSNVQIRNHLKNTATSLGSTNLYGSGLVNAEAATR
With B8, the midpoint of thermal melting (Tm) runs as follows: (Lederbergia lenta, pH 8.8, CD, Tris buffer 100 mM, reversible: No) 77.2 °C and 79.2 °C; (Lederbergia lenta, pH 9, DSC, boric acid 100 mM, CaCl2 2 mM) 72.7 °C and 75.5 °C.
